Where a chain is given by its changes, count along the chain named.
B1: 374_H09 (antibody, V domains shown)
VH: EVQLLESGGGLVQPGGSLRLSCAASGFTFSSYSMNWVRQAPGKGLEWVANINYNSGYKSYADSVKGRFTISRDNSKNTLYLQMNSLRAEDTAVYYCARSANWHDTALDYWGQGTLVTVSS
VL: DIQMTQSPSSLSASVGDRVTITCRASQSILSYLNWYQQKPGKAPKLVIYAVTSLASGVPSRFSGSGSGTDFTLTISSLQPEDFATYYCQQSYDLPLTFGGGTKVEIK
notes: VH/VL only
B2: 375_A02 (antibody, V domains shown)
VH: B1 VH with N50G, K58T, N101T, A106H
VL: not shown
notes: VH/VL only
B3: 375_A05 (antibody, V domains shown)
VH: B1 VH with S33G, S55G, S59G
VL: B1 VL with V47L, V51A, L54R
notes: VH/VL only
B4: 375_A06 (antibody, V domains shown)
VH: B1 VH with N50G, S59G, N101T, A106H
VL: B1 VL with S31T, L33V, V47L, V51A, T52S, A55Q, D93S, L94T
notes: VH/VL only
B5: 375_B04 (antibody, V domains shown)
VH: B1 VH with S30D, S55G, K58T, S59G, N101T, A106H
VL: B1 VL with S31T, V47L, V51A, L54R, L94N
notes: VH/VL only
B6: 375_C06 (antibody, V domains shown)
VH: B1 VH with S30D, S31D, S33G, N35H, N50S, K58T
VL: B1 VL with S31T, L33V, V51T, L54R, L94S
notes: VH/VL only
B7: 375_C12 (antibody, V domains shown)
VH: B1 VH with S55G, K58T, S59G, N101T, A106H
VL: B1 VL with S31T, V47L, V51A, L54R
notes: VH/VL only
B8: 375_D05 (antibody, V domains shown)
VH: B1 VH with N50S, K58T, A106H
VL: B1 VL with L30V, V47L, V51A, A55H, L94T
notes: VH/VL only
B9: 375_D07 (antibody, V domains shown)
VH: B1 VH with S33G, K58T, S59G
VL: B1 VL with L30I, S31T, V47L, V51A, L54R, L94T
notes: VH/VL only
B10: 375_D08 (antibody, V domains shown)
VH: B1 VH with S31D, S33G, A49S, N50G, S59G
VL: B1 VL with L30I, S31T, V47L, V51A, L54R, D93S, L94T
notes: VH/VL only
B11: 375_D12 (antibody, V domains shown)
VH: B1 VH with S30D, S33G, A49S, N50S, K58T
VL: B1 VL with S31T, L33V, V51A, L54R, D93E, L94T
notes: VH/VL only
B12: 375_E01 (antibody, V domains shown)
VH: B1 VH with A49S, N50G
VL: B1 VL with S31T, V51A, L54R, Y92D, L94S
notes: VH/VL only
B13: 375_E07 (antibody, V domains shown)
VH: B1 VH with S31D, N50G, S59G
VL: B1 VL with L30V, S31T, V47L, A50V, S53N, L54R, A55E, D93E, L94T
notes: VH/VL only
B14: 375_G07 (antibody, V domains shown)
VH: B1 VH with S30D, N50G, K58T, N101T, A106H
VL: B1 VL with V51A
notes: VH/VL only
B15: 375_H12 (antibody, V domains shown)
VH: B1 VH with S33G, N50G, S55G, S59G
VL: B1 VL with S31T, V47L, A50Y, S53N, L54R, A55Q, D93S, L94I
notes: VH/VL only
B16: 376_A04 (antibody, V domains shown)
VH: B1 VH with S30D, A49S, S55G, K58T
VL: B1 VL with L30V, S31T, V51A, L54R, L94S
notes: VH/VL only
B17: 376_A06 (antibody, V domains shown)
VH: B1 VH with S30D, A49S, N50G, K58T, N101T
VL: B1 VL with A50Y, T52S, S53N, L54R, L94N
notes: VH/VL only
B18: 376_A10 (antibody, V domains shown)
VH: B1 VH with S31D, S33G, A49S, S59G
VL: B1 VL with V47L, V51A, L54R, D93E, L94S
notes: VH/VL only
B19: 376_A12 (antibody, V domains shown)
VH: B1 VH with S59G
VL: B1 VL with L33V, V51A, L54R, L94T
notes: VH/VL only
B20: 376_B01 (antibody, V domains shown)
VH: B1 VH with S30D, N50G, S55G, K58T, N101T, A106H
VL: B1 VL with S31T, L33V, V51A, L54R, D93N
notes: VH/VL only
B21: 376_B04 (antibody, V domains shown)
VH: B1 VH with S30D, S33G, N35H, N50S, S55G, K58T, S59G
VL: B1 VL with L30V, L33V, V51A, L54R, L94T
notes: VH/VL only
B22: 376_B05 (antibody, V domains shown)
VH: B1 VH with S55G, K58T, S59G
VL: B1 VL with L30I, L33V, V47L, V51A, L54R, D93E
notes: VH/VL only
B23: 376_B06 (antibody, V domains shown)
VH: B1 VH with N50G, S59G, N101T, A106H
VL: B1 VL with S31T, V47L, V51A, L54R
notes: VH/VL only
B24: 376_B07 (antibody, V domains shown)
VH: B1 VH with S30D, A49S, N50G, K58T, N101T
VL: B1 VL with A50Y, T52S, S53N, L54R, L94N
notes: VH/VL only
B25: 376_B09 (antibody, V domains shown)
VH: B1 VH with S30D, S59G
VL: B1 VL with S31T, L33V, V51A, L54R
notes: VH/VL only
B26: 376_B11 (antibody, V domains shown)
VH: B1 VH with A49S, N50G, S55G, K58T
VL: B1 VL with L33V, V51A, L54R
notes: VH/VL only

The binders below were run against T1, biotinylated goat anti-human kappa light chain (assay: ELISA; positive control).
T1 construct: Positive control of the ELISA
Outline: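 mAb binding by ELISA; antigens: hu ACVR2A, mu ACVR2A; pos ctrl biotinylated goat anti-hu kappa LC; neg ctrl hu Fc.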
Further: test concentration or dose not given here.

Going from B1 to B2, the optical density rises from 3.04 OD to 3.07 OD.

First: B3
Second: B4
The optical density of the first is higher: 3.12 OD for the first, 3.11 OD for the second.

First: B5
Second: B6
The optical density of the first is lower: 3.26 OD for the first, 3.29 OD for the second.

Going from B7 to B8, the optical density falls from 3.27 OD to 3.21 OD.

First: B9
Second: B10
The optical density of the first is lower: 3.25 OD for the first, 3.3 OD for the second.

Compared with B11, B12 is lower in optical density: 3.23 OD for the first, 3.11 OD for the second.

Going from B13 to B14, the optical density rises from 3.06 OD to 3.2 OD.

First: B15
Second: B16
The optical density of the first is higher: 3.26 OD for the first, 3.12 OD for the second.

First: B17
Second: B18
The optical density of the first is lower: 3.16 OD for the first, 3.17 OD for the second.

First: B19
Second: B20
The optical density of the first is lower: 3.22 OD for the first, 3.24 OD for the second.

First: B21
Second: B22
The optical density of the first is higher: 3.58 OD for the first, 3.52 OD for the second.

First: B23
Second: B24
The optical density of the first is lower: 3.46 OD for the first, 3.53 OD for the second.

First: B25
Second: B26
The optical density of the first is lower: 3.51 OD for the first, 3.61 OD for the second.

The binders below were run against human ACVR2A (human, UniProt P27037 20-135, limits assumed) (assay: ELISA).
Outline: (§1)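 ELISA measured binding of ACVR2A-specific monoclonal antibodies to human and mouse ACVR2A. Biotinylated goat anti-human kappa light chain served as positive control and human Fc as negative control.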

human ACVR2A, sequence (P27037 20-135 limits assumed): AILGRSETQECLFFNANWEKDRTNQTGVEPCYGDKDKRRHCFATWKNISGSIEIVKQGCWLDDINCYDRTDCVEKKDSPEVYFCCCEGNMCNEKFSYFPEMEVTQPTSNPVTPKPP

Compared with B1, B2 is lower in optical density: 3.25 OD for the first, 2.98 OD for the second.

First: B3
Second: B4
The optical density of the first is higher: 3.72 OD for the first, 3.65 OD for the second.

First: B5
Second: B6
The optical density of the first is higher: 3.69 OD for the first, 2.65 OD for the second.

Going from B7 to B8, the optical density falls from 3.66 OD to 3.46 OD.

Going from B9 to B10, the optical density falls from 3.56 OD to 3.29 OD.

First: B11
Second: B12
The optical density of the first is higher: 3.24 OD for the first, 3.16 OD for the second.

Compared with B13, B14 is lower in optical density: 3.68 OD for the first, 3.63 OD for the second.

Going from B15 to B16, the optical density rises from 3.26 OD to 3.59 OD.

Going from B17 to B18, the optical density falls from 3.69 OD to 3.68 OD.

Compared with B19, B20 is lower in optical density: 3.7 OD for the first, 3.28 OD for the second.

First: B21
Second: B22
The optical density of the first is lower: 3.41 OD for the first, 3.65 OD for the second.

Going from B23 to B24, the optical density rises from 3.7 OD to 3.73 OD.

Going from B25 to B26, the optical density falls from 3.78 OD to 3.69 OD.

The binders below were run against mouse ACVR2A (mouse, UniProt P27038 20-135, limits assumed) (assay: ELISA).
Outline: as §1

mouse ACVR2A, sequence (P27038 20-135 limits assumed): as the sequence (P27037 20-135 limits assumed) above, with K20R, V73I counted along it

First: B1
Second: B2
The optical density of the first is higher: 3.26 OD for the first, 3.18 OD for the second.

Going from B3 to B4, the optical density rises from 3.69 OD to 3.71 OD.

Going from B5 to B6, the optical density falls from 3.73 OD to 3.21 OD.

First: B7
Second: B8
The optical density of the first is lower: 3.33 OD for the first, 3.61 OD for the second.

Compared with B9, B10 is lower in optical density: 3.63 OD for the first, 3.4 OD for the second.

Going from B11 to B12, the optical density rises from 3.16 OD to 3.63 OD.

First: B13
Second: B14
The optical density of the first is higher: 3.81 OD for the first, 3.67 OD for the second.

Going from B15 to B16, the optical density rises from 3.1 OD to 3.58 OD.

Going from B17 to B18, the optical density falls from 3.74 OD to 3.64 OD.

Compared with B19, B20 is higher in optical density: 3.34 OD for the first, 3.67 OD for the second.

Going from B21 to B22, the optical density rises from 3.48 OD to 3.78 OD.

Compared with B23, B24 is lower in optical density: 3.77 OD for the first, 3.71 OD for the second.

Compared with B25, B26 is higher in optical density: 3.72 OD for the first, 3.75 OD for the second.
